From US11918645B2, “Vaccines against hepatitis B virus” (priority 2012, dated 2024)

Tested on: PBMC from chronic HBV-infected subjects
Assay: IFNγ ELISpot of PBMC restimulated with individual unconjugated HBV long peptides (Example 5)
Assay type: cell-based, human
Conditions: HBeAg-negative inactive carriers and HBeAg-negative treated subjects; 5 μg/mL, 18 h; FIGS. 9 and 10
Procedure: One vial of PBMC from each subject (containing 1×10^7 cells) was thawed and lymphocyte numbers were determined using a Scepter™ automated handheld cell counter. PBMC were cultured in 2 mL culture medium (CM: RPMI-1640 Glutamax supplemented with 5% human AB serum) in 24 well cell culture plates at a concentration of 1×10^6 cells/mL for a total of 11 days. Cells were stimulated with a mixture of the nine HBV-derived long peptides described in Example 3.
Each peptide was used at a final concentration of 1 μg/peptide/mL. On Day 4, IL-2 and IL-15 were added to the cultures to final concentrations of 10 IU/mL and 10 ng/mL respectively. On Day 10, cells were washed twice in CM and cultured with 10 IU/mL IL-2 for 1 additional day. On Day 11, cells were washed twice in CM, counted and incorporated in a human IFNγ (interferon-gamma) ELISpot assay or intracellular cytokine staining.
Cells from short term cultures were plated in triplicate wells at 5×10^4 PBMC/well. Final antigen concentrations used were: 5 μg/mL for each individual peptides; PHA positive control: 1 μg/mL.

Substance	T cell responses (IFNγ ELISpot), level and frequency of responders
NP151: unconjugated HBV long peptide, polymerase region 134-168 (PEHVVNHYFQTRHYLHTLWKAGILYKRETTRSASF; HBV CONSENSUS SEQUENCE)	highest level of responses in both patient populations and in the highest proportion of subjects

Same assay, conditions: genotypes A, B, C & D; FIG. 11

Substance	T cell responses (IFNγ ELISpot) grouped by infecting HBV genotype
NP151: unconjugated HBV long peptide, polymerase region 134-168 (PEHVVNHYFQTRHYLHTLWKAGILYKRETTRSASF; HBV CONSENSUS SEQUENCE)	highest responses across all four genotypes A, B, C & D

Same assay, conditions: three ethnic groups; FIG. 12

Substance	T cell responses (IFNγ ELISpot) grouped by ethnic background
NP151: unconjugated HBV long peptide, polymerase region 134-168 (PEHVVNHYFQTRHYLHTLWKAGILYKRETTRSASF; HBV CONSENSUS SEQUENCE)	highest responses across all three ethnic groups

Tested on: HLA-DP4 (α1*01:03;β1*04:01)
Assay: ProImmune REVEAL MHC class II binding assay of long peptides
Set-up: species or system human
Conditions: percentage of the signal of the positive control peptide; positive binding score >=15%

Substance	binding score, HLA-DP4 (α1*01:03;β1*04:01) [%]
NP151: unconjugated HBV long peptide, polymerase region 134-168 (PEHVVNHYFQTRHYLHTLWKAGILYKRETTRSASF; HBV CONSENSUS SEQUENCE)	74.36

Target: HLA-A*2402 (Homo sapiens, UniProt P04439, D101N/D140Y/D185E/E176V/E190D/F33S/G103R/G107R/I119L/I121M/I306V/K335N/L105A/L180Q/L300P/N151K/N90K/Q86E/Q94H/R106L/R138H/R89G/T104I/T345S/V100E/W191G/Y123F)
Assay: ProImmune REVEAL MHC class I binding assay of nonamers
Conditions: score as % of positive control peptide
Description: (§1) The number of HLA class I binding registers contained in each peptide may be determined by determining the ability of the peptide to bind to a range of frequently occurring HLA class I molecules. HLA class I binding may be measured using the ProImmune REVEAL® MHC-peptide Binding Assay (ProImmune Ltd, Oxford, UK). The REVEAL™ MHC peptide-binding assay measures the ability of each peptide to stabilize the ternary MHC-peptide complex for […], HLA-A*0201, HLA¬A*0301, HLA-A*2402, HLA-B*0702, HLA-B*0801, HLA-B*3501 representative of main HLA class I supertypes. Each tested peptide is given a score relative to a pass/fail control peptide and also compared to a positive control peptide.
(§2) Detection is based on the presence or absence of the native conformation of the MHC-peptide complex. The highly frequent HLA class I alleles (HLA-A*0201, A*0301, A*1101, A*2402, B*0702, B*0801, and B*3501) were selected. Binding to MHC molecules was compared to that of a known T-cell epitope, a positive control peptide, with very strong binding properties. […] The score of the test peptide is reported quantitatively as a percentage of the signal generated by the positive control peptide, and the peptide is indicated as having a putative pass or fail result. Good binders are considered to be those peptides with scores 45% of the positive control as defined by ProImmune.

Substance	Number of nonamers having a binding score >= 45%, HLA-A*2402
NP151: unconjugated HBV long peptide, polymerase region 134-168 (PEHVVNHYFQTRHYLHTLWKAGILYKRETTRSASF; HBV CONSENSUS SEQUENCE)	4

Target: HLA-B*3501 (Homo sapiens, UniProt P01889, A329T/A93T/A95T/C349S/D201E/D98Y/E176V/E187L/E204Q/E69T/I218V/K202T/L119I/Q94N/R155S/R180L/S121R/S35A/S48A/T118I/V127L/V306I/V36M/Y140S/Y91F)
Assay: as above
Conditions: score as % of positive control peptide
Description: as §1, §2

Substance	Number of nonamers having a binding score >= 45%, HLA-B*3501
NP151: unconjugated HBV long peptide, polymerase region 134-168 (PEHVVNHYFQTRHYLHTLWKAGILYKRETTRSASF; HBV CONSENSUS SEQUENCE)	0

Target: HLA-B*0801 (Homo sapiens, UniProt P01889, A93T/A95T/D138N/E176V/E187T/K202T/Q94N/R180D/S35A/V36M/Y33D/Y91F)
Assay: as above
Conditions: score as % of positive control peptide
Description: as §1, §2

Substance	Number of nonamers having a binding score >= 45%, HLA-B*0801
NP151: unconjugated HBV long peptide, polymerase region 134-168 (PEHVVNHYFQTRHYLHTLWKAGILYKRETTRSASF; HBV CONSENSUS SEQUENCE)	4

Target: HLA-A*0201 (Homo sapiens, UniProt P04439, D140Y/D185E/D98H/E176V/E277Q/G131W/G231S/I119V/I121R/I166T/I218V/L300P/L318F/N151K/N90K/P208A/P217A/Q86G/Q94H/R138H/R169H/T345S)
Assay: as above
Conditions: score as % of positive control peptide
Description: as §1, §2

Substance	Number of nonamers having a binding score >= 45%, HLA-A*0201
NP151: unconjugated HBV long peptide, polymerase region 134-168 (PEHVVNHYFQTRHYLHTLWKAGILYKRETTRSASF; HBV CONSENSUS SEQUENCE)	3

Target: T1, HLA-A*0301 (Homo sapiens, UniProt P04439)
T1 construct: purchased ProImmune
Assay: as above
Conditions: score as % of positive control peptide
Description: as §1, §2

Substance	Number of nonamers having a binding score >= 45%, HLA-A*0301
NP151: unconjugated HBV long peptide, polymerase region 134-168 (PEHVVNHYFQTRHYLHTLWKAGILYKRETTRSASF; HBV CONSENSUS SEQUENCE)	4

Target: T2, HLA-A*1101 (Homo sapiens, UniProt P04439, A114D/D185E/E176A/F33Y/L180Q/S129P/T187R)
T2 construct: purchased ProImmune
Assay: as above
Conditions: score as % of positive control peptide
Description: as §1, §2

Substance	Number of nonamers having a binding score >= 45%, HLA-A*1101
NP151: unconjugated HBV long peptide, polymerase region 134-168 (PEHVVNHYFQTRHYLHTLWKAGILYKRETTRSASF; HBV CONSENSUS SEQUENCE)	3

Target: T3, HLA-B*0702 (Homo sapiens, UniProt P01889)
T3 construct: purchased ProImmune
Assay: as above
Conditions: score as % of positive control peptide
Description: as §1, §2

Substance	Number of nonamers having a binding score >= 45%, HLA-B*0702
NP151: unconjugated HBV long peptide, polymerase region 134-168 (PEHVVNHYFQTRHYLHTLWKAGILYKRETTRSASF; HBV CONSENSUS SEQUENCE)	3

Target: T4, HLA-DR15 (α1*01:01;β1*15:01) (Homo sapiens, UniProt P01903+P01911)
T4 construct: purchased ProImmune
Assay: ProImmune REVEAL MHC class II binding assay of long peptides
Conditions: percentage of the signal of the positive control peptide; positive binding score >=15%
Description: (§3) The highly frequent HLA class II alleles HLA-DR1 (α1*01:01;β1*01:01), HLA-DR15 (α1*01:01;β1*15:01), HLA-DR3 (α1*01:01;β1*03:01), HLA-DR4 (α1*01:01;β1*04:01), HLA-DR11 (α1*01:01;β1*11:01), HLA-DR13 (α1*01:01;β1*13:01), and HLA-DR7 (α1*01:01;β1*07:01) were selected. Each peptide was given a score relative to the positive control peptide, which is a known T-cell epitope. The score of the test peptide is reported quantitatively as a percentage of the signal generated by the positive control peptide, and the peptide is indicated as having a putative pass or fail result. Good binders are considered to be those peptides with scores >=15% of the positive control as defined by Proimmune.

Substance	binding score, HLA-DR15 (α1*01:01;β1*15:01) [%]
NP151: unconjugated HBV long peptide, polymerase region 134-168 (PEHVVNHYFQTRHYLHTLWKAGILYKRETTRSASF; HBV CONSENSUS SEQUENCE)	38.96

Target: T5, HLA-DR7 (α1*01:01;β1*07:01) (Homo sapiens, UniProt P01903+P01911, A100R/A102G/A103Q/D57E/D86V/E43K/F76Y/K127E/L162R/M171V/P40G/Q125H/Q99D/R195Q/R33Q/R42Y/R54Q/S133A/S149N/S66F/T210M/V115G/Y107V/Y59L/Y89S)
T5 construct: purchased ProImmune
Assay: as above
Conditions: percentage of the signal of the positive control peptide; positive binding score >=15%
Description: as §3

Substance	binding score, HLA-DR7 (α1*01:01;β1*07:01) [%]
NP151: unconjugated HBV long peptide, polymerase region 134-168 (PEHVVNHYFQTRHYLHTLWKAGILYKRETTRSASF; HBV CONSENSUS SEQUENCE)	19.41

Tested on: HLA class I alleles
Assay: ProImmune REVEAL MHC class I binding assay, summary over the seven alleles
Set-up: species or system human
Conditions: number of class I alleles for which positive binding was detected
Description: as §1, §2

Substance	Number of allele (b)
NP151: unconjugated HBV long peptide, polymerase region 134-168 (PEHVVNHYFQTRHYLHTLWKAGILYKRETTRSASF; HBV CONSENSUS SEQUENCE)	6

Same assay, conditions: total number binding epitopes detected for each long peptide, seven class I alleles

Substance	Number of HLA binders (a)
NP151: unconjugated HBV long peptide, polymerase region 134-168 (PEHVVNHYFQTRHYLHTLWKAGILYKRETTRSASF; HBV CONSENSUS SEQUENCE)	21
